Values quoted from earlier work, collected in paper PMC5705969.

Legend:
Kv1.1 = Kv1.1 (UniProt Q09470)
Kv1.3 = Kv1.3 (UniProt P22001)
Kv1.2 = Kv1.2 (UniProt P16389)
UniProt P16389, sequence (P16389 whole entry): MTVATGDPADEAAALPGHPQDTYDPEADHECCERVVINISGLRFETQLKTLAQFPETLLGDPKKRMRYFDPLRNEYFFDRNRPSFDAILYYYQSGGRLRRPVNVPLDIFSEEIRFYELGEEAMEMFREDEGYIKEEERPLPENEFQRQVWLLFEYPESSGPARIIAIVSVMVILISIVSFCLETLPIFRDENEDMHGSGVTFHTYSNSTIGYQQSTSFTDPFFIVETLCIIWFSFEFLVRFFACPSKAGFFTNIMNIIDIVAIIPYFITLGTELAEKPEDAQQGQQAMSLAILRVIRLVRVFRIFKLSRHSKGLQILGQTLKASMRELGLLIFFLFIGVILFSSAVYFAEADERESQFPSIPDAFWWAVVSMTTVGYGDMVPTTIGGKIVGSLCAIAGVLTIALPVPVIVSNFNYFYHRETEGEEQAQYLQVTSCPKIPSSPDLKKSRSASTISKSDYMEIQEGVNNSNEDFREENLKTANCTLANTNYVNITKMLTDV

UniProt Q09470, sequence (Q09470 whole entry): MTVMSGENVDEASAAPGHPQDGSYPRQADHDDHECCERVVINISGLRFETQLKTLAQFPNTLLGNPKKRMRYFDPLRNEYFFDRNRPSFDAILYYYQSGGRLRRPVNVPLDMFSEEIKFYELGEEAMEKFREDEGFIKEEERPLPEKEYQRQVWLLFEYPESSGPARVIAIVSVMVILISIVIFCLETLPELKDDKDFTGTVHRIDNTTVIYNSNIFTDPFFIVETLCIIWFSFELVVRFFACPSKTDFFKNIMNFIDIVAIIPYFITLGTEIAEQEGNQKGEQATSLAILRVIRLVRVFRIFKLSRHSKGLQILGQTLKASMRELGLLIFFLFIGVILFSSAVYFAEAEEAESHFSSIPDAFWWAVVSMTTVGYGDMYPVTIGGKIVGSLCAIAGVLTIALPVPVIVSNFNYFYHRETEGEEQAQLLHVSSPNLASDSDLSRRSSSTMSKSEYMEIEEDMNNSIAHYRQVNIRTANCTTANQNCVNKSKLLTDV
UniProt P22001, sequence (P22001 whole entry): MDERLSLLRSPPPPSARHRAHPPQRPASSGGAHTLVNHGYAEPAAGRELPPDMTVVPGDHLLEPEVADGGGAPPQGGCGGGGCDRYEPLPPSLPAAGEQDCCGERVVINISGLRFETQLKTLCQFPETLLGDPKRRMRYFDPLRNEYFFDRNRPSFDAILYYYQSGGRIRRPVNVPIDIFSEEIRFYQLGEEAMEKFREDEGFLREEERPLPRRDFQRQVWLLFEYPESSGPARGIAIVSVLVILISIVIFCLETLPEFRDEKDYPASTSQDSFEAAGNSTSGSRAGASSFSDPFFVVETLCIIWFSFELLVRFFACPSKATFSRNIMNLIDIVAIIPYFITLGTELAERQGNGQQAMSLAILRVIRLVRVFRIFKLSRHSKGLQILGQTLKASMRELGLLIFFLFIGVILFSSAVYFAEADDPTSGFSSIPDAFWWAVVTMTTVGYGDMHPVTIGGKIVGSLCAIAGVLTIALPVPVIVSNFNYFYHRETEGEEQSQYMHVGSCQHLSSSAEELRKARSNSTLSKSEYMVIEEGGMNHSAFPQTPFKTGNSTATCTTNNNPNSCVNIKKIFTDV

Question: For AgTx-2 (from UniProt P46111), which Kd (Kv1.1) is on record?
Answer: 0.13 nM

Question: And the Kd (Kv1.3)?
Answer: 0.05 nM

Question: What about the Kd (Kv1.2) of the same substance?
Answer: 3.4 nM
